Patent US11278600B2, “Human alpha-galactosidase variants” (Codexis, Inc., priority 2014, dated 2022)
Numbering of substitutions follows the chain as printed.

B1: 158 (protein)
chain: LDNGLARTPTMGWLHWERFMCNLDCQEEPDSCISEKLFMEMAELMVSEGWKDAGYEYLCIDDCWMAPQRDSEGRLQADPQRFPHGIKQLANYVHSKGLKLGIYADVGNKTCAGFPGSFGYYDIDAQTFADWGVDLLKFDGCYCDSLENLADGYKHMSLALNRTGRSIVYSCEWPLYMWPFQKPNYTEIRQYCNHWRNFADIDDSWKSIKSILDWTSFNQERIVDVAGPGGWNDPDMLVIGNFGLSWNQQVTQMALWAIMAAPLFMSNDLRHISPQAKALLQDKDVIAINQDPLGKQGYQLRQGDNFEVWERPLSGLAWAVAMINRQEIGGPRSYTIAVASLGKGVACNPACFITQLLPVKRKLGFYEWTSRLRSHINPTGTVLLQLENTMQMSKDLLL
modifications: Synthetic Polypeptide sequence of Variant No. 158 of mature Human GLA
B2: 165 (protein)
chain: B1 chain with S34G, K87R
modifications: Synthetic Polypeptide sequence of Variant No. 165 of mature Human GLA
B3: 160 (protein)
chain: B1 chain with K87R, S166A
modifications: Synthetic Polypeptide sequence of Variant No. 160 of mature Human GLA
B4: 164 (protein)
chain: B1 chain with S34D, K87R, M392P
modifications: Synthetic Polypeptide sequence of Variant No. 164 of mature Human GLA
B5: 159 (protein)
chain: B1 chain with K87P, L398R
modifications: Synthetic Polypeptide sequence of Variant No. 159 of mature Human GLA
B6: 162 (protein)
chain: B1 chain with K87R, S166K
modifications: Synthetic Polypeptide sequence of Variant No. 162 of mature Human GLA
B7: 161 (protein)
chain: B1 chain with K87R, S166H
modifications: Synthetic Polypeptide sequence of Variant No. 161 of mature Human GLA
B8: 163 (protein)
chain: B1 chain with S31D, K87R
modifications: Synthetic Polypeptide sequence of Variant No. 163 of mature Human GLA
B9: 39 (protein)
chain: LDNGLARTPTMGWLHWERFMCNLDCQEEPDSCISEKLFMEMAELMVSEGWKDAGYEYLCIDDCWMAPQRDSEGRLQADPQRFPHGIRQLANYVHSKGLKLGIYADVGNKTCAGFPGSFGYYDINAQTFADWGVDLLKFDGCYCDSLGNLADGYKHMSLALKQVGASSIVXCEWPLYSWPFQKPNYTEIRQYCNHWRNFADIDDSWKSIKSILDWTSENQERIVDVAGPGGWNDPDMLVIGNFGLSWNQQVTQMALWAIMAAPLFMSNDLRHISPQAKALLQDKDVIAINQDPLGKQGYQLRQGDNFEVWERPLSGLAWAVAMINRQEIGGPRSYTIAVASLGKGVACNPACFITQLLPVKRKLGFYEWTSRLRSHINPTGTVLLQLENTMQMSKDLLL
modifications: Synthetic Polypeptide sequence of Variant No. 39 of mature Human GLA; VARIANT (170)..(170): Xaa = any amino acid or absent

assay: HTP-analysis of yeast culture supernatants, no challenge (MUGal hydrolysis); type: biochemical; conditions: activity of the variant/activity of WT GLA (SEQ ID NO: 5), yeast supernatant
Outline: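 GLA variants were expressed in INVSc1 yeast grown in SD-Ura broth with glucose at 30° C., and culture supernatants were collected after 66-84 h. Supernatant was mixed with McIlvaine buffer pH 4.8 and MUGal (2 mM stock) in 50 mM citrate, 200 mM KCl, pH 4.6, incubated at 37° C. for 30-180 minutes, then quenched with sodium carbonate.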

Question: With B1 as the molecule, how does the “Relative Activity of GLA Variants After No Challenge (NC)” value read?
Answer: Its value is “++ (++ = >1.5 to 2.5 relative activity over WT GLA (SEQ ID NO: 5))”.

Question: For B2, which “Relative Activity of GLA Variants After No Challenge (NC)” value is on record?
Answer: The value was “+ (+ = 0.5 to 1.5 relative activity over WT GLA (SEQ ID NO: 5))”.

Question: With B3 as the molecule, how does the “Relative Activity of GLA Variants After No Challenge (NC)” value read?
Answer: The value was “+ (+ = 0.5 to 1.5 relative activity over WT GLA (SEQ ID NO: 5))”.

Question: With B4 as the molecule, how does the “Relative Activity of GLA Variants After No Challenge (NC)” value read?
Answer: The value was “+ (+ = 0.5 to 1.5 relative activity over WT GLA (SEQ ID NO: 5))”.

Question: Which “Relative Activity of GLA Variants After No Challenge (NC)” value does the source give for B5 here?
Answer: The value was “+ (+ = 0.5 to 1.5 relative activity over WT GLA (SEQ ID NO: 5))”.

Question: For B6, which “Relative Activity of GLA Variants After No Challenge (NC)” value is on record?
Answer: The value was “+ (+ = 0.5 to 1.5 relative activity over WT GLA (SEQ ID NO: 5))”.

Question: For B7, which “Relative Activity of GLA Variants After No Challenge (NC)” value is on record?
Answer: The value was “+ (+ = 0.5 to 1.5 relative activity over WT GLA (SEQ ID NO: 5))”.

Question: Which “Relative Activity of GLA Variants After No Challenge (NC)” value does the source give for B8 here?
Answer: The value was “+ (+ = 0.5 to 1.5 relative activity over WT GLA (SEQ ID NO: 5))”.

Question: Which “Relative Activity of GLA Variants After No Challenge (NC)” value does the source give for B9 here?
Answer: The value was “+ (+ = 0.5 to 1.5 relative activity over WT GLA (SEQ ID NO: 5))”.

assay: HTP-analysis of supernatants pretreated with acid (MUGal hydrolysis); type: biochemical; conditions: challenge at pH 4.2; activity of the variant/activity of WT GLA (SEQ ID NO: 5); yeast supernatant
Outline: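 Yeast INVSc1 supernatant, GLA variants; acid challenge: McIlvaine pH 3.3-4.3, 37° C., 1-3 h. Assay: MUGal in McIlvaine pH 4.8 plus citrate pH 4.3, 37° C., 30-180 min, Na2CO3 stop, Ex 355/Em 448 nm.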

Question: For B1, which “Relative Activity of GLA Variants After Challenge at pH 4.2” value (“Relative Activity … at pH 4.2” below) is on record?
Answer: Its value is “+ (+ = 0.5 to 1.5 relative activity over WT GLA (SEQ ID NO: 5))”.

Question: With B2 as the molecule, how does the “Relative Activity … at pH 4.2” value read?
Answer: The value was “− (− = <0.5 relative activity to WT GLA (SEQ ID NO: 5))”.

Question: For B3, which “Relative Activity … at pH 4.2” value is on record?
Answer: Its value is “++ (++ = >1.5 to 2.5 relative activity over WT GLA (SEQ ID NO: 5))”.

Question: Which “Relative Activity … at pH 4.2” value does the source give for B4 here?
Answer: Its value is “− (− = <0.5 relative activity to WT GLA (SEQ ID NO: 5))”.

Question: Which “Relative Activity … at pH 4.2” value does the source give for B5 here?
Answer: The value was “+ (+ = 0.5 to 1.5 relative activity over WT GLA (SEQ ID NO: 5))”.

Question: With B6 as the molecule, how does the “Relative Activity … at pH 4.2” value read?
Answer: The value was “+ (+ = 0.5 to 1.5 relative activity over WT GLA (SEQ ID NO: 5))”.

Question: For B7, which “Relative Activity … at pH 4.2” value is on record?
Answer: Its value is “+ (+ = 0.5 to 1.5 relative activity over WT GLA (SEQ ID NO: 5))”.

Question: For B8, which “Relative Activity … at pH 4.2” value is on record?
Answer: Its value is “+ (+ = 0.5 to 1.5 relative activity over WT GLA (SEQ ID NO: 5))”.

Question: With B9 as the molecule, how does the “Relative Activity … at pH 4.2” value read?
Answer: Its value is “++ (++ = >1.5 to 2.5 relative activity over WT GLA (SEQ ID NO: 5))”.

assay: HTP-analysis of supernatants pretreated with base (MUGal hydrolysis); type: biochemical; conditions: challenge at pH 7.1; activity of the variant/activity of WT GLA (SEQ ID NO: 5); yeast supernatant
Outline: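 Fluorescence of released 4-MU (Ex 355 nm, Em 448 nm) after carbonate quench reports MUGal hydrolysis by GLA variants secreted from INVSc1 yeast. Before the acidic (pH 4.3-4.8) 30-180 min reaction at 37° C, supernatants had been pre-incubated at pH 7.0-9.7 for 1-18 h at 37° C.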

Question: For B1, which “Relative Activity of GLA Variants After Challenge at pH 7.1” value (shortened to “Relative Activity … at pH 7.1”) is on record?
Answer: The value was “++ (++ = >1.5 to 2.5 relative activity over WT GLA (SEQ ID NO: 5))”.

Question: With B2 as the molecule, how does the “Relative Activity … at pH 7.1” value read?
Answer: The value was “− (− = <0.5 relative activity to WT GLA (SEQ ID NO: 5))”.

Question: For B3, which “Relative Activity … at pH 7.1” value is on record?
Answer: Its value is “+ (+ = 0.5 to 1.5 relative activity over WT GLA (SEQ ID NO: 5))”.

Question: With B4 as the molecule, how does the “Relative Activity … at pH 7.1” value read?
Answer: Its value is “− (− = <0.5 relative activity to WT GLA (SEQ ID NO: 5))”.

Question: With B5 as the molecule, how does the “Relative Activity … at pH 7.1” value read?
Answer: The value was “+ (+ = 0.5 to 1.5 relative activity over WT GLA (SEQ ID NO: 5))”.

Question: With B6 as the molecule, how does the “Relative Activity … at pH 7.1” value read?
Answer: The value was “+ (+ = 0.5 to 1.5 relative activity over WT GLA (SEQ ID NO: 5))”.

Question: With B7 as the molecule, how does the “Relative Activity … at pH 7.1” value read?
Answer: The value was “+ (+ = 0.5 to 1.5 relative activity over WT GLA (SEQ ID NO: 5))”.

Question: Which “Relative Activity … at pH 7.1” value does the source give for B8 here?
Answer: Its value is “+ (+ = 0.5 to 1.5 relative activity over WT GLA (SEQ ID NO: 5))”.

Question: For B9, which “Relative Activity … at pH 7.1” value is on record?
Answer: Its value is “++ (++ = >1.5 to 2.5 relative activity over WT GLA (SEQ ID NO: 5))”.
